Here are results for four molecules from patent US20200182883A1 (UNIVERSITY OF MARYLAND BALTIMORE, published 2020).

The target in test [1] is T1, HIV-1 IIIB p24 recombinant protein (HIV-1 IIIB).
T1 construct: domain: p24
The experiment in a line: SPR, mAb immobilized on a Protein A chip, 0-200 nM p24, room temperature.
Procedure: Surface Plasmon Resonance (SPR) analysis of anti-p24 mAbs. […] Surface Plasmon Resonance (SPR) analysis of each mAb binding to p24. Sensorgrams were obtained at room temperature for each mAb immobilized on a Protein A chip with 0-200 nM concentrations of p24 passed over the chip.

Test [2] deals with T2, YU2 gp120 core, from which V1, V2, and V3 have been deleted (HIV-1 YU2, UniProt P35961 82-479).
T2 construct: domain: gp120 core; also called YU2 core; YU2-core
The experiment in a line: ELISA, graded.

The target in test [3] is T2, YU2 gp120 core, from which V1, V2, and …. The test can be described thus: ELISA, background-subtracted OD, mAb titrated.

B1: N60P53 (antibody, V domains shown)
VH: QVQLQESGPGLVKPSQTLSLTCTVSGGSINSGGYFWTWIRQEPGKGLEWIGHVHSSGTTSYNPSLKSRLTISLDSSKNQFSLNLTSVTAADTAVYYCASQGRLGIGDYWGQGALVVVSS
VL: DIQMTQSPSSLSASVGDRVTITCRASQGVSHLVNWYQQKPGKAPKPLIYTVSSLHSGVPSRISGSGSETEFTLTISSLQPEDFATYYCQQTYSSPRTFGQGTRVDLK
notes: Anti-p24 mAb; they may be variable regions only; captured on Protein A chip in SPR; also called N6053
As for B1, in test [1], the Kd worked out at 39.9 pM, the koff was determined as 3.81e-05 s⁻¹ and the kon was 954000 M⁻¹ s⁻¹.

B2: N60P2.1 (antibody, V domains shown)
VH: RAQLVQSGPEVKKPGASVRISCAASGYTFVDSFIHWLRQAPGQGLEWIGWINPLRGGVNYSGRFQGRVAMTRNTFTETVYMDINGLTPDDTATYFCVRAPDSYDRGYDAWGQGTRVIVTS
VL: YIQVTQSPSTLSASIGDTVTITCRASEGWLAWYQQKPGKAPKLIIYKTSTLERGVPSRFSGSVSGADFTLTISGLQSDDFATYYCQKFEFFGQGTVVDMK
notes: they may be variable regions only
Turning to B2, in test [2], the binding result is reported as “no binding”.

B3: N60P23 (antibody, V domains shown)
VH: HVQLVQSGTEVKRPGASVRISCASSGYTFSNYFIHWVRQAPGRGLEWMGWMNPLRGAVNYSGKFQGRVTMTRDIYTETSFMVLSGLRSDDTAIYFCARGRDGYEYGFNPWGQGTLVTVSS
VL: CYVQTQSPSTLYASVGDRVTITCRSSQSGWKAWYQQKPGKAPKLLIYKSSTLESGVPSRFSGSDSGTEFNLTITSLQPDDFATYFCQHFETFGQGTRVEVR
notes: they may be variable regions only; Kappa light chain
On to B3, for which, in test [3], the binding result is listed as “no binding (tested: 0.8 ug/ml)”.

B4: N60P25.1 (antibody, V domains shown)
VH: QIELVQSGTEVKRPGASVRISCASSGYRFTNYFIHWVRQAPGRGLEWMGWMNPLHGGVNYSGRFQGRVTMTRDIYTETSFMVLSGLTSDDTAIYFCTRGRDGYDDGFHPWGQGTLVTVSA
VL: YVQSQSPSTLYASVGDKITITCRSSQSGWKAWYQQKPGKAPKLLIYKSSILETGVPSRFSGSDSGTEFTLTISSLQPDDFATYYCQHFETFGQGTRVQVR
notes: Kappa light chain; also called N6025.1
Regarding B4, in test [2], the binding result is given as “no binding”.
